Measurements: paper PMC12327617

Biological target: myeloperoxidase (MPO), two subunits MPOα and MPOβ (human (endogenous in HL-60))
Assay: co-IP; anti-MPO-coated magnetic beads with HL-60 NET extract; H3.1-nucleosomes left after the IP quantified with the H3.1-nucleosome immunoassay, depletion against the unprocessed sample

- percent depletion of H3.1-nucleosomes after IP anti-MPO: 30%
Substance: H3.1-nucleosomes (nucleosomes containing the histone variant H3.1) of NETs (from UniProt P68431 1-136; P62805 1-103; P0C0S8 1-130; P62807 1-126) (complex)
